Four sequences from the supplement of paper PMC5998384 can be followed below.

For series [1], the system named is HeLa Kyoto. Put plainly: thermal stability score vs G1/S (z-score of summed log2 fold changes over temperatures); higher = more thermally stable than in G1/S.
Series [2] deals with HeLa Kyoto. Put plainly: solubility in G1/S (NP-40 vs SDS abundance) (log2 ratio); higher = more soluble. The following applies: cell cycle stage: G1/S.
The test system of series [3] is HeLa Kyoto. Put plainly: melting temperature (median over replicates), in situ; higher = more thermally stable.
In series [4] the test system is HeLa Kyoto. Put plainly: solubility change mitosis vs G1/S (difference of NP-40 vs SDS log2 ratios) (log2 ratio difference); higher = more soluble in mitosis.
[5] abbreviates: cell cycle stage: early G1 (4.5 h after nocodazole release).
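Wherever melting temperature (median over replicates), in situ is given: HeLa Kyoto cells synchronized by double thymidine or nocodazole block, proteins quantified by TMT10plex mass spectrometry, three independent biological replicates.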
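Wherever solubility change mitosis vs G1/S (difference of NP-40 vs SDS log2 ratios) is given: synchronized HeLa Kyoto cells (double thymidine block for G1/S, nocodazole release for mitosis), protein amounts in NP-40 versus SDS lysates quantified by mass spectrometry, three biological replicates.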
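Wherever solubility in G1/S (NP-40 vs SDS abundance) is given: HeLa Kyoto cells arrested at G1/S by double thymidine block, proteins quantified by TMT10plex mass spectrometry in mild NP-40 versus SDS extracts, three biological replicates.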
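Wherever thermal stability score vs G1/S (z-score of summed log2 fold changes over temperatures) is given: synchronized HeLa Kyoto cells, proteins quantified by TMT10plex mass spectrometry, three biological replicates, mitosis taken 0.5 h after nocodazole release, G1/S directly after double thymidine block.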

“MNREDRNVLRMKERERRNQEIQQGEDAFPPSSPLFAEPYKVTSKEDKLSSRIQSMLGNYDEMKDFIGDRSIPKLVAIPKPTVPPSADEKSNPNFFEQRHGGSHQSSKWTPVGPAPSTSQSQKRSSGLQSGHSSQRTSAGSSSGTNSSGQRHDRESYNNSGSSSRKKGQHGSEHSKSRSSSPGKPQAVSSLNSSHSRSHGNDHHSKEHQRSKSPRDPDANWDSPSRVPFSSGQHSTQSFPPSLMSKSNSMLQKPTAYVRPMDGQESMEPKLSSEHYSSQSHGNSMTELKPSSKAHLTKLKIPSQPLDASASGDVSCVDEILKEMTHSWPPPLTAIHTPCKTEPSKFPFPTKESQQSNFGTGEQKRYNPSKTSNGHQSKSMLKDDLKLSSSEDSDGEQDCDKTMPRSTPGSNSEPSHHNSEGADNSRDDSSSHSGSESSSGSDSESESSSSDSEANEPSQSASPEPEPPPTNKWQLDNWLNKVNPHKVSPASSVDSNIPSSQGYKKEGREQGTGNSYTDTSGPKETSSATPGRDSKTIQKGSESGRGRQKSPAQSDSTTQRRTVGKKQPKKAEKAAAEEPRGGLKIESETPVDLASSMPSSRHKAATKGSRKPNIKKESKSSPRPTAEKKKYKSTSKSSQKSREIIETDTSSSDSDESESLPPSSQTPKYPESNRTPVKPSSVEEEDSFFRQRMFSPMEEKELLSPLSEPDDRYPLIVKIDLNLLTRIPGKPYKETEPPKGEKKNVPEKHTREAQKQASEKVSNKGKRKHKNEDDNRASESKKPKTEDKNSAGHKPSSNRESSKQSAAKEKDLLPSPAGPVPSKDPKTEHGSRKRTISQSSSLKSSSNSNKETSGSSKNSSSTSKQKKTEGKTSSSSKEVKEKAPSSSSNCPPSAPTLDSSKPRRTKLVFDDRNYSADHYLQEAKKLKHNADALSDRFEKAVYYLDAVVSFIECGNALEKNAQESKSPFPMYSETVDLIKYTMKLKNYLAPDATAADKRLTVLCLRCESLLYLRLFKLKKENALKYSKTLTEHLKNSYNNSQAPSPGLGSKAVGMPSPVSPKLSPGNSGNYSSGASSASASGSSVTIPQKIHQMAASYVQVTSNFLYATEIWDQAEQLSKEQKEFFAELDKVMGPLIFNASIMTDLVRYTRQGLHWLRQDAKLIS [AFF4]”: the results for the thermal stability score with HeLa Kyoto [1] (setting [5]) and in the series with HeLa Kyoto [1] (cell cycle stage: mitosis) were 0.474 and 1.75, respectively. The “solubility in G1/S (log2)” value in the series with HeLa Kyoto [2] came to 0.00478. The melting temperature was 48.6 °C in the series with HeLa Kyoto [3] (cell cycle stage: G1/S) and 51 °C with HeLa Kyoto [3] (cell cycle stage: mitosis). The “solubility change mitosis (log2)” value in the series on HeLa Kyoto [4] was 0.309.
For the sequence “MNRTKGDEEEYWNSSKFKAFTFDDEDDELSQLKESKRAVNSLRDFVDDDDDDDLERVSWSGEPVGSISWSIRETAGNSGSTHEGREQLKSRNSFSSYAQLPKPTSTYSLSSFFRGRTRPGSFQSLSDALSDTPAKSYAPELGRPKGEYRDYSNDWSPSDTVRRLRKGKVCSLERFRSLQDKLQLLEEAVSMHDGNVITAVLIFLKRTLSKEILFRELEVRQVALRHLIHFLKEIGDQKLLLDLFRFLDRTEELALSHYREHLNIQDPDKRKEFLKTCVGLPFSAEDSAHIQDHYTLLERQIIIEANDRHLESAGQTEIFRKHPRKASILNMPLVTTLFYSCFYHYTEAEGTFSSPVNLKKTFKIPDKQYVLTALAARAKLRAWNDVDALFTTKNWLGYTKKRAPIGFHRVVEILHKNNAPVQILQEYVNLVEDVDTKLNLATKFKCHDVVIDTYRDLKDRQQLLAYRSKVDKGSAEEEKIDALLSSSQIRWKN [VIPAS39]”, the results for the thermal stability score in the series with HeLa Kyoto [1] (setting [5]) and in the series with HeLa Kyoto [1] (cell cycle stage: mitosis) were 0.126 and 0.142, respectively. Moreover, in the series with HeLa Kyoto [2], the “solubility in G1/S (log2)” value was 0.111. For the same sequence, the figures for the melting temperature with HeLa Kyoto [3] (cell cycle stage: G1/S) and in the series on HeLa Kyoto [3] (cell cycle stage: mitosis) were 49.5 °C and 49.2 °C, respectively. Also, in the series with HeLa Kyoto [4], the “solubility change mitosis (log2)” value was -0.125.
For “MNSAEQTVTWLITLGVLESPKKTISDPEGFLQASLKDGVVLCRLLERLLPGTIEKVYPEPRSESECLSNIREFLRGCGASLRLELLFPPSQPPQHLVTTILLSASTFDANDLYQGQNFNKVLSSLVTLNKVTADIGLGSDSVCARPSSHRIKSFDSLGSQSLHTRTSKLFQGQYRSLDMTDNSNNQLVVRAKFNFQQTNEDELSFSKGDVIHVTRVEEGGWWEGTLNGRTGWFPSNYVREVKASEKPVSPKSGTLKSPPKGFDTTAINKSYYNVVLQNILETENEYSKELQTVLSTYLRPLQTSEKLSSANISYLMGNLEEICSFQQMLVQSLEECTKLPEAQQRVGGCFLNLMPQMKTLYLTYCANHPSAVNVLTEHSEELGEFMETKGASSPGILVLTTGLSKPFMRLDKYPTLLKELERHMEDYHTDRQDIQKSMAAFKNLSAQCQEVRKRKELELQILTEAIRNWEGDDIKTLGNVTYMSQVLIQCAGSEEKNERYLLLFPNVLLMLSASPRMSGFIYQGKLPTTGMTITKLEDSENHRNAFEISGSMIERILVSCNNQQDLQEWVEHLQKQTKVTSVGNPTIKPHSVPSHTLPSHPVTPSSKHADSKPAPLTPAYHTLPHPSHHGTPHTTINWGPLEPPKTPKPWSLSCLRPAPPLRPSAALCYKEDLSKSPKTMKKLLPKRKPERKPSDEEFASRKSTAALEEDAQILKVIEAYCTSAKTRQTLNSTWQGTDLMHNHVLADDDQPSLDSLGRRSSLSRLEPSDLSEDSDYDSIWTAHSYRMGSTSRKSCCSYISHQN [ARHGEF7]”, the thermal stability score turned out to be 0.815 in the series with HeLa Kyoto [1] (setting [5]) and 1.6 with HeLa Kyoto [1] (cell cycle stage: mitosis). Besides, the “solubility in G1/S (log2)” value with HeLa Kyoto [2] was 0.105. Further, the melting temperature in the series with HeLa Kyoto [3] (cell cycle stage: G1/S) amounted to 48.5 °C; in the series on HeLa Kyoto [3] (cell cycle stage: mitosis), 49.6 °C. Also, the “solubility change mitosis (log2)” value in the series with HeLa Kyoto [4] was -0.0942.
With “MNSNVENLPPHIIRLVYKEVTTLTADPPDGIKVFPNEEDLTDLQVTIEGPEGTPYAGGLFRMKLLLGKDFPASPPKGYFLTKIFHPNVGANGEICVNVLKRDWTAELGIRHVLLTIKCLLIHPNPESALNEEAGRLLLENYEEYAARARLLTEIHGGAGGPSGRAEAGRALASGTEASSTDPGAPGGPGGAEGPMAKKHAGERDKKLAAKKKTDKKRALRRL [UBE2S]”, the figures for the thermal stability score in the series on HeLa Kyoto [1] (setting [5]) and with HeLa Kyoto [1] (cell cycle stage: mitosis) were 1.11 and 0.461, respectively. The “solubility in G1/S (log2)” value in the series with HeLa Kyoto [2] was 0.347. Besides, the melting temperature in the series on HeLa Kyoto [3] (cell cycle stage: G1/S) amounted to 51 °C; with HeLa Kyoto [3] (cell cycle stage: mitosis), 50.9 °C. Moreover, the “solubility change mitosis (log2)” value in the series on HeLa Kyoto [4] stood at 0.0837.
